In patent US20250197448A1 (UNIVERSITY OF ROCHESTER, published 2025):
Starred links: 1 amine or outer side, 2 acyl side, 3 side chain; linkers in the order of their positions; H or OH if unused. Positions of bridges follow the written chain, without caps; N, C: chain ends. Non-standard residues stand in square brackets, D forms with d. Primed or numbered codes have the meaning given here. No end group written: not given here. O2beY = O-(2-bromoethyl)-tyrosine (p-2beF), reacts with Cys to form a thioether, O=C([C@H](Cc1ccc(OCCBr)cc1)N[*:1])[*:2]; pCaaF″ = p-(2-chloro-acetamido)-phenylalanine, thioether-linked to Cys, O=C(C[*:3])Nc1ccc(C[C@H](N[*:1])C(=O)[*:2])cc1; pCaaF = p-(2-chloroacetamido)-phenylalanine, O=C(CCl)Nc1ccc(C[C@H](N[*:1])C(=O)[*:2])cc1

How the values were obtained:
[1] = target: T1, Kelch-like ECH-associated protein 1 (Keap1) (human, UniProt Q14145 321-609, limits assumed); experiment: plate binding assay with immobilised Keap1
Experimental: Keap1 Binding Assay. For the Keap1 binding assay, Keap1 was immobilized on microtiter plates by incubating 100 μL of a 4 μM protein solution in PBS buffer overnight at 4° C., followed by washing (3×150 μL of PBS with 0.5% Tween-20) and blocking with 0.5% bovine serum albumin in PBS for 1.5 h at room temperature. After washing, each well was incubated with 100 μL of purified FLAG-tagged peptide at varying concentrations for 1 hour at room temperature. After washing three times with wash buffer, each well was incubated with 100 μL of 1:2500 dilution of HRP-conjugate mouse anti-FLAG polyclonal antibody (Sigma-Aldrich) for 1 hour at room temperature. After three washing steps with wash buffer, 100 μL of 2.2 mM o-phenylenediamine dihydrochloride, 4.2 mM urea hydrogen peroxide, 100 mM dibasic sodium phosphate, and 50 mM sodium citrate, pH 5.0, were added to each well, followed by measurement of the absorbance at 450 nm after 10-20 min using a Tecan Infinite 1000 plate reader. Equilibrium dissociation constants (KD) were determined by fitting the dose-response curves to a 1:1 binding isotherm equation via nonlinear regression using SigmaPlot. Mean values and standard deviations were calculated from experiments performed in triplicate. […]

[2] = target: Sonic Hedgehog (Shh) (human, UniProt Q15465 24-197, limits assumed); experiment: plate binding assay: immobilised Shh, FLAG-tagged binder titrated, HRP anti-FLAG detection
[3] = target: T2, PD-L1 (Programmed Death-Ligand 1), recombinant, His-tagged (human, UniProt Q9NZQ7 18-134, limits assumed); experiment: plate binding assay with immobilised PD-L1
T2 construct: Immobilised on microtiter plates
Experimental: After washing (3×150 μL of PBS with 0.05% Tween-20), each well was incubated with 100 μL of purified FLAG-tagged cyclopeptibody at varying concentrations for 1 hour at room temperature. After washing three times with wash buffer, each well was incubated with 100 μL of 1:2500 dilution of HRP-conjugate mouse anti-FLAG polyclonal antibody (Sigma-Aldrich) for 1 hour at room temperature. After washing three times with wash buffer, 100 μL of 2.2 mM o-phenylenediamine dihydrochloride, 4.2 mM urea hydrogen peroxide, 100 mM dibasic sodium phosphate, and 50 mM sodium citrate, pH 5.0, were added to each well, followed by measurement of the absorbance at 450 nm after 10-20 min using a Tecan Infinite 1000 plate reader. Equilibrium dissociation constants (Kp) were determined by fitting the dose-response curves to a 1:1 binding isotherm equation via nonlinear regression. using SigmaPlot. Mean values and standard deviations were calculated from experiments performed in triplicate.
To illustrate this aspect of the invention, a series of PD-L1 targeting cyclopeptibodies were prepared by introducing variable spacer sequences between the cyclic peptide and Fc domain in the PD-L1-targeting cyclopeptibody cRK10-Tras-Fc (Table 1, Entries 31-34; FIG. 20). The spacer sequences included a more flexible (-GSGSGS-), more rigid (-PAPAP-; -EAAAK-) or longer linker (Q12) compared to the exa-glutamine (Q6) spacer sequence in cyclopeptibody cRK10-Tras-Fc.

[4] = target: T1, Kelch-like ECH-associated protein 1 …; experiment: plate binding assay: immobilised Keap1, FLAG-tagged binder titrated, HRP anti-FLAG detection, 1:1 isotherm fit
Experimental: (§1) Streptavidin Binding Assay. For the streptavidin binding assays, streptavidin-coated plates (Sigma-Aldrich) were used. For the Keap1, Shh and PD-L1 binding assay, target protein was immobilized on microtiter plates by incubating 100 μL of a 4 μM protein solution in PBS buffer overnight at 4° C., followed by decanting the protein solution and blocking with 0.5% bovine serum albumin in PBS for 2 h at room temperature. After washing (3×150 μL of PBS with 0.05% Tween-20), each well was incubated with 100 μL of purified FLAG-tagged cyclopeptibody at varying concentrations for 1 hour at room temperature. After washing three times with wash buffer, each well was incubated with 100 μL of 1:2500 dilution of HRP-conjugate mouse anti-FLAG polyclonal antibody (Sigma-Aldrich) for 1 hour at room temperature. After washing three times with wash buffer, 100 μL of 2.2 mM o-phenylenediamine dihydrochloride, 4.2 mM urea hydrogen peroxide, 100 mM dibasic sodium phosphate, and 50 mM sodium citrate, pH 5.0, were added to each well, followed by measurement of the absorbance at 450 nm after 10-20 min using a Tecan Infinite 1000 plate reader. Equilibrium dissociation constants (Kp) were determined by fitting the dose-response curves to a 1:1 binding isotherm equation via nonlinear regression. using SigmaPlot. Mean values and standard deviations were calculated from experiments performed in triplicate.

[5] = target: T3, PD-L1 on the surface of MDA-MB-231 breast cancer cells (human, UniProt Q9NZQ7 19-290); experiment: flow cytometry on MDA-MB-231 cells, 0.09 mg/ml, FITC anti-human IgG Fc secondary
T3 construct: whole, on cells; also called PD-L1 receptor on the cancer cells
Experimental: The cells were then incubated with fluorescein-conjugated anti-human IgG Fc antibody and analyzed by flow cytometry. The same experiment was carried out in parallel using commercially available anti-PD-L1 antibody as positive control and various negative controls. […] Several applications for these compounds can be easily envisioned, including detection and/or staining of PD-L1 in vitro and in vivo (e.g., upon conjugation of the cyclopeptibody with a fluorescent dye, IR probe, or PET contrast agent), cell-targeted drug delivery (e.g., upon conjugation of the PD-L1-binding cyclopeptibody with a drug cargo), and use as therapeutic agents in cancer immunotherapy, among others.

[6] = target: T2, PD-L1 (Programmed Death-Ligand 1), …; experiment: plate binding assay: immobilised PD-L1, FLAG-tagged binder titrated, HRP anti-FLAG detection
Experimental: as §1

[7] = target: T2, PD-L1 (Programmed Death-Ligand 1), …; experiment: competition assay: plate-immobilised PD-L1, competitor biotinylated PD-1 (500 nM), bound PD-1 read with HRP-streptavidin
Experimental: as §1, with “After washing three times with wash buffer, each well was incubated with 100 μL of 1:2500 dilution of HRP-conjugate mouse anti-FLAG polyclonal antibody (Sigma-Aldrich) for 1 hour at room temperature.” left out
PD-L1 Competition Assay. […] After washing, the bound PD-1 was quantified by means of HRP-conjugate Streptavidin and colorimetric assay as described above. […]

[8] = target: T4, streptavidin (UniProt P22629 37-163, limits assumed); experiment: plate binding assay on streptavidin-coated plates
[9] = target: T4, streptavidin; experiment: plate binding assay: streptavidin-coated plate, FLAG-tagged binder titrated, HRP anti-FLAG detection, 1:1 isotherm fit
Description: The resulting cyclopeptibody (called Strep-m3-Tras-Fc) was expressed, purified, and characterized as described in Example 4. This construct was confirmed to contain the cyclic peptide constrained via O2beY/Cys thioether (i/i-8) linkage, where ‘i’ indicates the position of the non-canonical amino acid O2beY (also refereed to herein as p-2beF). The cyclopeptibody Strep-m3-Tras-Fc was then characterized for its streptavidin binding affinity using a reported in vitro binding assay (Owens et al, ACS Cent Sci. (2020); 6(3):368-381).
Streptavidin Binding Assay. For the streptavidin binding assays, streptavidin-coated plates (Sigma-Aldrich) were used. […] After washing three times with wash buffer, 100 μL of 2.2 mM o-phenylenediamine dihydrochloride, 4.2 mM urea hydrogen peroxide, 100 mM dibasic sodium phosphate, and 50 mM sodium citrate, pH 5.0, were added to each well, followed by measurement of the absorbance at 450 nm after 10-20 min using a Tecan Infinite 1000 plate reader. Equilibrium dissociation constants (Kp) were determined by fitting the dose-response curves to a 1:1 binding isotherm equation via nonlinear regression. using SigmaPlot. Mean values and standard deviations were calculated from experiments performed in triplicate.

T1 sequence (Q14145 321-609 limits assumed): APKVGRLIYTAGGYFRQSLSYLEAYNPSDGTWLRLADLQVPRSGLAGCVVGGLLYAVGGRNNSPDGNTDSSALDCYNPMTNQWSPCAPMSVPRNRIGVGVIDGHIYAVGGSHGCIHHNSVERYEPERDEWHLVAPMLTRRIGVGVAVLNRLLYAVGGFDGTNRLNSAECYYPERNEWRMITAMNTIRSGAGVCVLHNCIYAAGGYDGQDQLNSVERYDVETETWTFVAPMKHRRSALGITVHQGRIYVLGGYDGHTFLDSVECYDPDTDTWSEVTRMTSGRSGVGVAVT
T4 sequence (P22629 37-163 limits assumed): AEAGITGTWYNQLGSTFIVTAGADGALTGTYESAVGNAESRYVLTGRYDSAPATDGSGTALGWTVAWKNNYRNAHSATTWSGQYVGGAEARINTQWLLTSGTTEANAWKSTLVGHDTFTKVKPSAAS
T2 sequence (Q9NZQ7 18-134 limits assumed): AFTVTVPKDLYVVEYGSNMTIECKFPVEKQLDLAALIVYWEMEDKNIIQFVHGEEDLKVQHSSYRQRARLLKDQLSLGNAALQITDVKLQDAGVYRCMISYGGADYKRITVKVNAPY
T3 sequence (Q9NZQ7 19-290): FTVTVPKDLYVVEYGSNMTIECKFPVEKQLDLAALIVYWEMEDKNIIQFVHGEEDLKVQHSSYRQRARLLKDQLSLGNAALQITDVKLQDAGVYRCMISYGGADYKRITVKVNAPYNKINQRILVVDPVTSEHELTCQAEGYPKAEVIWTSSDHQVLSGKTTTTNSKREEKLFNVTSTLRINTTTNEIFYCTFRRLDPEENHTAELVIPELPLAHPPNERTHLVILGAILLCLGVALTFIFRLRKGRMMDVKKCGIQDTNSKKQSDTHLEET

B1: FLAG-KKD-m1-KKD-m1-Tras-Fc-His (Fc fusion)
chain: DYKDDDDKGSGSYDSETGECGSGSENLYFQGSGSYDSETGECIEGRGSGS
modifications: thioether (positions not given here); not fully specified (residues 13, 35, C-terminus, bridges); also: two O2beY, each thioether-linked to Cys of its own cyclic peptide, places them at C20 and L27
notes: Two copies of the KKD-m1 cyclic peptide in tandem on each Fc chain; also called polyvalent Keap1-targeting cyclopeptibody
Kd [1]: 45 nM

B2: cyclic peptide L2-m5 alone (as CBD fusion) (peptide)
chain: TLSW[O2beY]EAMDMCTSS
modifications: thioether 5-11; also: as CBD fusion
Kd [2]: 388 nM

B3: FLAG-cRK10-Q12-Tras-Fc-His (Fc fusion)
chain: DYKDDDDKGSGSTYLCGAISLA[pCaaF]KAQIKESLQQQQQQQQQQQQ-{Fc-H6}
modifications: thioether 16-23
notes: Spacer variant of cRK10-Tras-Fc (Q12); also called FLAG-(GS)2-TYLCGAISLAZKAQIKESL-(Q)12-(Fc)^1-H6
Kd [3]: 237 nM

B4: KKD-m1-Tras-Fc (Fc fusion)
chain: DYKDDDDKGSGS[O2beY]DSETGECQQQQQQ-{Fc-H6}
modifications: thioether 13-20; also: dimeric through the Fc
notes: Cyclic peptide fused through a (Gln)6 spacer to human IgG1 Fc; dimeric through the Fc; made in E. coli; also called FLAG-(GS)2-ZDSETGEC-(Q)6-(Fc)^1-H6
fold improved affinity against the same cyclic peptide fused to CBD [1]: > 20 fold
Kd [4]: 4 nM

B5: cyclic peptide cRK10 (pCaaF) (peptide)
chain: TYLCGAISLA[pCaaF]KAQIKESL
modifications: thioether 4-11
Kd [3]: 13000 nM

B6: cCLP003 (pCaaF)-Tras-Fc (Fc fusion)
chain: DYKDDDDKGSGSWHFS[pCaaF]NWRWLPCQQQQQQ
modifications: thioether 17-24 (inferred); not fully specified (C-terminus)
notes: also called cCLP003-Tras-Fc; cCLP003-Tras-Fc-His
fold higher MFI against cRK10-Tras-Fc [5]: 4 fold
Kd [6]: ~250 nM
IC50 [7]: 6000 nM
fold increase in affinity against the cyclic peptide alone [3]: 40 fold

B7: cyclic peptide cCLP003 (pCaaF) (peptide)
chain: WHFS[pCaaF″]NWRWLPC
modifications: thioether 5-12; not fully specified
Kd [3]: ~10000 nM
fold higher affinity against the linear CLP003 peptide [3]: ~40 fold

B8: cyclic peptide KKD-m1 alone (as CBD fusion) (peptide)
chain: [O2beY]DSETGEC
modifications: thioether 1-8; also: as CBD fusion
Kd [4]: 85 nM

B9: FLAG-Strep-m3-Strep-m3-Tras-Fc-His (Fc fusion)
chain: DYKDDDDKGSGSSCWWHPQGD[O2beY]GSGSENLYFQGSGSSCWWHPQGD[O2beY]IEGRGSGS-{Fc-His}
modifications: thioether 14-22, 38-46; not fully specified; also: second O2beY at Y30, thioether-linked to Cys of its own cyclic peptide
notes: Two copies of the Strep-m3 cyclic peptide in tandem on each Fc chain; also called polyvalent streptavidin-targeting cyclopeptibody
Kd [8]: 56 nM

B10: Strep-m3-Tras-Fc (Fc fusion)
chain: DYKDDDDKGSGSSCWWHPQGD[O2beY]QQQQQQ-{Fc-H6}
modifications: thioether 14-22; also: dimeric through the Fc
notes: Cyclic peptide fused through a (Gln)6 spacer to human IgG1 Fc; dimeric through the Fc; made in E. coli; also called FLAG-(GS)2-SCWWHPQGDZ-(Q)6-(Fc)^1-H6
fold improved affinity against the same cyclic peptide fused to CBD [8]: 1.3 fold
Kd [9]: 37 nM

B11: cRK10 (pCaaF)-Tras-Fc (Fc fusion)
chain: DYKDDDDKGSGSTYLCGAISLA[pCaaF]KAQIKESLQQQQQQ-{Fc-H6}
modifications: thioether 16-23
notes: also called cRK10-Tras-Fc; RK10-Tras-Fc-His
Kd [6]: 40 nM
Kd [3]: 42 nM
fold higher PD-L1 binding affinity against FLAG-cRK10-Q12-Tras-Fc-His [3]: 6 fold
fold higher binding affinity against the cyclic peptide cRK10 [3]: 300 fold

B12: cyclic peptide Strep-m3 alone (as CBD fusion) (peptide)
chain: SCWWHPQGD[O2beY]
modifications: thioether 2-10; also: as CBD fusion
Kd [9]: 50 nM
